Measurements reported in patent publication US20230109780A1 (XIYUAN ANJIAN MEDICINE SHANGHAI, published 2023).

Columns and labels:
[1] = target: T1, human BDNF (human, UniProt P23560 129-247); test: ELISA, plate coated with human BDNF (50 ng per well), OD450
T1 construct: Bought protein; also called Brain-Derived Neurotrophic Factor
T1 sequence (looked up): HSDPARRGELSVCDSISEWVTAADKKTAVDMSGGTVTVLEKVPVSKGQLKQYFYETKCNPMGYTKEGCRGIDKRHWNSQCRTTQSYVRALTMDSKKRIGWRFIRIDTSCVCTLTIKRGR

[2] = target: T2, human NT-4 (human, UniProt P34130 81-210); test: ELISA, plate coated with human NT-4 (50 ng per well), OD450
T2 construct: Bought protein; also called Neurotrophic factor-4
T2 sequence (looked up): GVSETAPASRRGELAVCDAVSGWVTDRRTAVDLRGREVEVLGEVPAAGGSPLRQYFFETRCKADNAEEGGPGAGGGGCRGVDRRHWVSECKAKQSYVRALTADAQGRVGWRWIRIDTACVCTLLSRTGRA

[3] = target: T3, recombinant human NGF protein (human, UniProt P01138 122-241); test: cell-based or functional assay
[4] = target: T3, recombinant human NGF protein; test: ELISA, human NGF coated
Description: The affinity and specificity of humanized antibody were investigated by using human NGF as an antigen (Beijing Yiqiao Shenzhou Technology Co., Ltd., 11050-HNAC). NGF was diluted with […] coating solution (PBS), and each well of 96-well microtiter plate was coated with 50 ng, after washing and blocking, and then added with serially diluted antibodies, and incubated at room temperature for 1 hour. After washing three times, HRP-conjugated donkey anti-human IgG antibody (Biolegend) was added and reacted at room temperature for 1 hour. After washing three times, tetramethylbenzidine (TMB, Biolegend) was added for color development. 1M HC1 was […] used to terminate the color development, and the absorbance values were read at 450 nm with a microplate reader.

[5] = target: T4, human NT-3 (human, UniProt P20783 139-257); test: ELISA, plate coated with human NT-3 (50 ng per well), OD450
T4 construct: Bought protein; also called Neurotrophic factor-3
T4 sequence (looked up): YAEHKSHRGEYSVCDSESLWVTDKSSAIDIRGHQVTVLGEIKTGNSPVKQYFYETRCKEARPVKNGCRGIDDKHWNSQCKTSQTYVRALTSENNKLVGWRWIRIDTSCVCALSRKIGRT
Description: Each well of a 96-well microtiter plate was coated with 50 ng of human NGF (Beijing Yiqiao Shenzhou Technology Co., Ltd., 11050-HNAC), human BDNF (Beijing Yiqiao Shenzhou Technology Co., Ltd., 50240-MNAS), human NT-3 (Beijing Yiqiao Shenzhou Technology Co., Ltd., 10286-HNAE), or human NT-4 (Alomone, N-270). The bindings of the murine anti-NGF antibodies to human NGF and three homo-family proteins were detected according to the method described in Example 2.
The binding of the humanized anti-NGF antibody to human NGF and to three homo-family proteins was detected according to the ELISA method described in Example 6A.

T3 sequence (P01138 122-241 limits assumed): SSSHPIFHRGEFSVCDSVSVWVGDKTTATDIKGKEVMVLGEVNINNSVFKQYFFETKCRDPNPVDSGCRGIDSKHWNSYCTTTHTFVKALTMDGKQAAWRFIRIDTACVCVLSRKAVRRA

| Binder | binding result [1] | binding result [2] | IC50, inhibition of NGF-induced proliferation of TF-1 cell [3] [nM] | EC50 [4] [nM] | binding result [5] |
| --- | --- | --- | --- | --- | --- |
| humanized anti-NGF antibody 138E12-02 (antibody, V domains shown, Humanized antibody expressed in CHO cells) VH: QVQLQESGPGLVKPSETLSLTCTVSGFSLTGYGVNWIRQPPGKGLEWLGMIWFDGSTDYNSALKSRLTISKDNSKSQVSLKLSSVTAADTAVYYCAREGYYYGTTYYFDYWGQGTTVTVSS VL: DIQMTQSPSSLSASVGDRVTITCRASQDISNYLNWYQQKPGKAPKLLIYYTSRLHSGVPSRFSGSGSGTDYTLTISSLQPEDFATYFCQQGNTLPRTFGGGTKVEIK | no binding (tested: 66.67 nM) | no binding (tested: 66.67 nM) | 0.064 | 0.042 | no binding (tested: 66.67 nM) |
| humanized anti-NGF antibody 138E12-11 (antibody, V domains shown) VH: QVQLQESGPGLVKPSETLSLTCTVSGFSLTGYGVNWIRQPPGKGLEWLGMIWFEGSTDYQSALKSRLTISKDNSKSQVSLKLSSVTAADTAVYYCAREGYYYGTTYYFDYWGQGTTVTVSS VL: DIQMTQSPSSLSASVGDRVTITCRASQDISNYLNWYQQKPGKAPKLLIYYTSRLHSGVPSRFSGSGSGTDYTLTISSLQPEDFATYFCQQGNTLPRTFGGGTKVEIK | no binding (tested: 66.67 nM) | no binding (tested: 66.67 nM) | 0.062 | 0.0324 | no binding (tested: 66.67 nM) |
| humanized anti-NGF antibody 138E12-07 (antibody, V domains shown) VH: QVQLQESGPGLVKPSETLSLTCTVSGFSLTGYGVNWIRQPPGKGLEWIGMIWFEGSTDYQSALKSRVTISVDTSKNQFSLKLSSVTAADTAVYYCAREGYYYGTTYYFDYWGQGTTVTVSS VL: DIQMTQSPSSLSASVGDRVTITCRASQDISNYLNWYQQKPGKAPKLLIYYTSRLHSGVPSRFSGSGSGTDYTLTISSLQPEDFATYFCQQGNTLPRTFGGGTKVEIK | no binding (tested: 66.67 nM) | no binding (tested: 66.67 nM) | 0.214 | 0.034 | no binding (tested: 66.67 nM) |
| humanized anti-NGF antibody 138E12-03 (antibody, V domains shown) VH: QVQLQESGPGLVKPSETLSLTCTVSGFSLTGYGVNWIRQPPGKGLEWLGMIWFEGSTDYNSALKSRLTISKDNSKSQVSLKLSSVTAADTAVYYCAREGYYYGTTYYFDYWGQGTTVTVSS VL: DIQMTQSPSSLSASVGDRVTITCRASQDISNYLNWYQQKPGKAPKLLIYYTSRLHSGVPSRFSGSGSGTDYTLTISSLQPEDFATYFCQQGNTLPRTFGGGTKVEIK | no binding (tested: 66.67 nM) | no binding (tested: 66.67 nM) | 0.13 | 0.0392 | no binding (tested: 66.67 nM) |
| humanized anti-NGF antibody 138E12-04 (antibody, V domains shown) VH: QVQLQESGPGLVKPSETLSLTCTVSGFSLTGYGVNWIRQPPGKGLEWLGMIWFDASTDYNSALKSRLTISKDNSKSQVSLKLSSVTAADTAVYYCAREGYYYGTTYYFDYWGQGTTVTVSS VL: DIQMTQSPSSLSASVGDRVTITCRASQDISNYLNWYQQKPGKAPKLLIYYTSRLHSGVPSRFSGSGSGTDYTLTISSLQPEDFATYFCQQGNTLPRTFGGGTKVEIK | no binding (tested: 66.67 nM) | no binding (tested: 66.67 nM) | 0.112 | 0.057 | no binding (tested: 66.67 nM) |
| humanized anti-NGF antibody 138E12-01 (antibody, V domains shown, Humanized antibody expressed in CHO cells) VH: QVQLQESGPGLVKPSETLSLTCTVSGFSLTGYGVNWIRQPPGKGLEWIGMIWFDGSTDYNSALKSRVTISKDNSKSQVSLKLSSVTAADTAVYYCAREGYYYGTTYYFDYWGQGTTVTVSS VL: DIQMTQSPSSLSASVGDRVTITCRASQDISNYLNWYQQKPGKAPKLLIYYTSRLHSGVPSRFSGSGSGTDYTLTISSLQPEDFATYFCQQGNTLPRTFGGGTKVEIK | no binding (tested: 66.67 nM) | no binding (tested: 66.67 nM) | 0.03 | 0.0403 | no binding (tested: 66.67 nM) |
| humanized anti-NGF antibody 138E12-06 (antibody, V domains shown) VH: QVQLQESGPGLVKPSETLSLTCTVSGFSLTGYGVNWIRQPPGKGLEWLGMIWFDGSTDYNTALKSRLTISKDNSKSQVSLKLSSVTAADTAVYYCAREGYYYGTTYYFDYWGQGTTVTVSS VL: DIQMTQSPSSLSASVGDRVTITCRASQDISNYLNWYQQKPGKAPKLLIYYTSRLHSGVPSRFSGSGSGTDYTLTISSLQPEDFATYFCQQGNTLPRTFGGGTKVEIK | no binding (tested: 66.67 nM) | no binding (tested: 66.67 nM) | 0.125 | 0.05 | no binding (tested: 66.67 nM) |
| humanized anti-NGF antibody 138E12-05 (antibody, V domains shown) VH: QVQLQESGPGLVKPSETLSLTCTVSGFSLTGYGVNWIRQPPGKGLEWLGMIWFDGSTDYQSALKSRLTISKDNSKSQVSLKLSSVTAADTAVYYCAREGYYYGTTYYFDYWGQGTTVTVSS VL: DIQMTQSPSSLSASVGDRVTITCRASQDISNYLNWYQQKPGKAPKLLIYYTSRLHSGVPSRFSGSGSGTDYTLTISSLQPEDFATYFCQQGNTLPRTFGGGTKVEIK | no binding (tested: 66.67 nM) | no binding (tested: 66.67 nM) | 0.136 | 0.0634 | no binding (tested: 66.67 nM) |
| humanized anti-NGF antibody 138E12-08 (antibody, V domains shown) VH: QVQLQESGPGLVKPSETLSLTCTVSGFSLTGYGVNWIRQPPGKGLEWIGMIWFEGSTDYNSALKSRVTISKDNSKSQVSLKLSSVTAADTAVYYCAREGYYYGTTYYFDYWGQGTTVTVSS VL: DIQMTQSPSSLSASVGDRVTITCRASQDISNYLNWYQQKPGKAPKLLIYYTSRLHSGVPSRFSGSGSGTDYTLTISSLQPEDFATYFCQQGNTLPRTFGGGTKVEIK | no binding (tested: 66.67 nM) | no binding (tested: 66.67 nM) | 0.067 | 0.0253 | no binding (tested: 66.67 nM) |
| humanized anti-NGF antibody 138E12-10 (antibody, V domains shown) VH: QVQLQESGPGLVKPSETLSLTCTVSGFSLTGYGVNWIRQPPGKGLEWIGMIWFEGSTDYQSALKSRVTISKDNSKSQVSLKLSSVTAADTAVYYCAREGYYYGTTYYFDYWGQGTTVTVSS VL: DIQMTQSPSSLSASVGDRVTITCRASQDISNYLNWYQQKPGKAPKLLIYYTSRLHSGVPSRFSGSGSGTDYTLTISSLQPEDFATYFCQQGNTLPRTFGGGTKVEIK | no binding (tested: 66.67 nM) | no binding (tested: 66.67 nM) | 0.031 | 0.0184 | no binding (tested: 66.67 nM) |
| humanized anti-NGF antibody 138E12-09 (antibody, V domains shown) VH: QVQLQESGPGLVKPSETLSLTCTVSGFSLTGYGVNWIRQPPGKGLEWIGMIWFDGSTDYQSALKSRVTISKDNSKSQVSLKLSSVTAADTAVYYCAREGYYYGTTYYFDYWGQGTTVTVSS VL: DIQMTQSPSSLSASVGDRVTITCRASQDISNYLNWYQQKPGKAPKLLIYYTSRLHSGVPSRFSGSGSGTDYTLTISSLQPEDFATYFCQQGNTLPRTFGGGTKVEIK | no binding (tested: 66.67 nM) | no binding (tested: 66.67 nM) | 0.035 | 0.027 | no binding (tested: 66.67 nM) |
| human-mouse chimeric antibody 138E12-Chi (antibody, V domains shown, the constant regions are not specified) VH: QVQLKESGPGLVAPSQSLSITCTVSGFSLTGYGVNWVRQPPGKGLEWLGMIWFDGSTDYNSALKSRLSISKDNSKSQVFLKMNSLQTDDTARYYCAREGYYYGTTYYFDYWGQGTTLTVSS VL: DIQMTQTTSSLSASLGDRVTISCRASQDISNYLNWYQQKPDGTVKLLIYYTSRLHSGVPSRFSGSGSGTDYSLTISNLEQEDIATYFCQQGNTLPRTFGGGTKLEIK | no binding (tested: 66.67 nM) | no binding (tested: 66.67 nM) | 0.074 | 0.0454 | no binding (tested: 66.67 nM) |
